Test results: patent publication US20240287172A1 (SCIRHOM, published 2024)

Target: T1, hiR2-FL-D535-T7 (deletion of D535) (human, UniProt Q6PJF5 1-856)
T1 construct: single amino acid deletion
T1 sequence: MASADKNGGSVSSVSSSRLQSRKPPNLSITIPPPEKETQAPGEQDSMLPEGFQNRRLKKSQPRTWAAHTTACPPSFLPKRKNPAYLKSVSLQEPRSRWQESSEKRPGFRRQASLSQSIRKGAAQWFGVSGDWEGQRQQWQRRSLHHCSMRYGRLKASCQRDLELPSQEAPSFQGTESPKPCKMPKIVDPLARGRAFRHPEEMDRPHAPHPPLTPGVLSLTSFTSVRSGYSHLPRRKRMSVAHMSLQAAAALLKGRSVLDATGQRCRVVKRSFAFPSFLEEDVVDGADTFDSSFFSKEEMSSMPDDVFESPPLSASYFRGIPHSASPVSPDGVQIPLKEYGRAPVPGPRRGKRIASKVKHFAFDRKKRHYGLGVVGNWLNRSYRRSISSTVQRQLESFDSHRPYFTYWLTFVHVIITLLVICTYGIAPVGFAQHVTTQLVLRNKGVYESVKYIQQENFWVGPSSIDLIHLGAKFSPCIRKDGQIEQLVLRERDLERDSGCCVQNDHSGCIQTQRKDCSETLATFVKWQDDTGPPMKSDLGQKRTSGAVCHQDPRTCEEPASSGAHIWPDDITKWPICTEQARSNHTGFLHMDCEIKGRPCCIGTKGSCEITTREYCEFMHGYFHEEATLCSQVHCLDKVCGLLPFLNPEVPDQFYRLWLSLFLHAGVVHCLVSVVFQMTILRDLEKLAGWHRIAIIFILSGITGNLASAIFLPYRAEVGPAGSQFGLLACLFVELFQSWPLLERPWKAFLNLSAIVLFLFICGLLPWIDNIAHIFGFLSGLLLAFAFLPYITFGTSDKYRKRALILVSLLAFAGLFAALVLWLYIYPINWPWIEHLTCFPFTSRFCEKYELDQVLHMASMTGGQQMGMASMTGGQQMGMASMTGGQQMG
Test: FACS, MEF-DKO cells, 3 µg/ml
Excerpt: In brief, immortalized MEF-DKO-hiR2-FL-G498A-T7, MEF-DKO-hiR2-FL-Q502R-T7, MEF-DKO-hiR2-FL-I509V-T7, MEF-DKO-hiR2-FL-Q512S-T7, MEF-DKO-hiR2-FL-R513E-T7, MEF-DKO-hiR2-FL-K514E-T7, MEF-DKO-hiR2-FL-D515E-T7, MEF-DKO-hiR2-FL-E518S-T7, MEF-DKO-hiR2-FL-T522V-T7, MEF-DKO-hiR2-FL-F523W-T7, MEF-DKO-hiR2-FL-Q527P-T7, MEF-DKO-hiR2-FL-D528I-T7, MEF-DKO-hiR2-FL-D529H-T7, MEF-DKO-hiR2-FL-T530P-T7, MEF-DKO-hiR2-FL-G531S-T7, MEF-DKO-hiR2-FL-P532A-T7, MEF-DKO-hiR2-FL-M534-T7, MEF-DKO-hiR2-FL-D535-T7, MEF-DKO-hiR2-FL-K536-T7, MEF-DKO-hiR2-FL-S537E-T7, MEF-DKO-hiR2-FL-D538L-T7, MEF-DKO-hiR2-FL-L539A-T7, MEF-DKO-hiR2-FL-Q541H-T7, MEF-DKO-hiR2-FL-T544Q-T7, MEF-DKO-hiR2-FL-S545F-T7, MEF-DKO-hiR2-FL-A547S-T7, MEF-DKO-hiR2-FL-T555V-T7, MEF-DKO-hiR2-FL-E557D-T7, MEF-DKO-hiR2-FL-A560S-T7 and MEF-DKO-hiR2-FL-S562E-T7 cells were harvested with 10 mM EDTA in PBS, washed and resuspended in FACS buffer (PBS, 3% FBS, 0.05% sodium azide), and seeded in Nunc U-bottom 96-well plates (Thermo Fisher Scientific, USA) at approximately 3×10⁵ cells per well. To pellet cells and remove supernatants, the plates were centrifuged at 1,500 rpm and 4° C. for 3 minutes. For primary staining, cells were resuspended in 100 μl per well of either FACS buffer alone (controls) or the purified antibodies 3, 5, 16, 22, 34, 42, 43, 44, 48, and 50 of the invention at 3 μg/ml in FACS buffer and incubated on ice for 1 hour. Afterwards, plates were centrifuged at 1,500 rpm and 4° C. for 3 minutes and washed twice with 200 μl per well of FACS buffer. For secondary staining, cells were spun down and resuspended in 100 μl per well of PE-conjugated goat anti-mouse IgG F(ab′)2 detection fragment (Dianova, Germany) diluted 1:100 in FACS buffer. Protected from light, the cell suspensions were incubated on ice for 1 hour. Plates were then centrifuged at 1,500 rpm and 4° C. for 3 minutes and washed three times with 200 μl per well of FACS buffer. Finally, cells were resuspended in 150 μl per well of FACS buffer and analyzed using a BD Accuri™ C6 Plus flow cytometer (Becton Dickinson, Germany).

| Binder | loss of binding vs wild type [%] |
| --- | --- |
| antibody 5 (antibody, V domains shown, mouse IgG, kappa light chain; also called clone #5; purified antibody 5) VH: QVTLKESGPGILQPSQTLSLTCSFSGFSLSTFGMGVGWIRQPSGKGLEWLAHIWWDDEKYYNSALKSRLTISKATSKNQAFLKIANVDTADTATYYCARISNYGSNYWYFNVWGTGTTVTVSS VL: QVVLTQSPALMSASPGEKVTMTCSAGSSVSCMYWYQQKPGSSPRVLIYDTSNLASGVPARFTGSGSGTSYSLTISRMEAEDAASYYCQQWNSYPLTFGAGTKLELK | ≥ 95 |
| antibody 42 (antibody, V domains shown, mouse IgG, kappa light chain; also called clone #42; purified antibody 42) VH: QVTLKESGPGILQPSQTLSLTCSLSGFSLSTFGRGVGWIRQPSGKGLEWLAHIWWDDEKYYNPALKSRLTISKDTSKNQVFLRIANVDTADTATYYCARIQNYGSNYWYFDVWGTGTTVTVSS VL: LIVLTQSPAIMSASPGEKVTMTCGATSRISYMFWYQQKPGSSPRVLIYDTSNLASGVPVRFSGSGSGTSYSLTISRVEAEDVATYYCQQWNSYPLTFGAGTKLELK | ≥ 95 |
| antibody 43 (antibody, V domains shown, mouse IgG, kappa light chain; also called clone #43; purified antibody 43) VH: QVALKESGPGILQPSQTLSLTCSFSGFSLSTFGMGVGWIRQSSGKGLEWLANIWWDDDKYYNPALKSRLTISKDASKNQAFLKIANVDTADTATYYCARIGNYGSNYWYFDVWGTGTTVTVSS VL: QIVLTQSPAIMSASPGERVTMTCSANSRISYMYWYQQKPGSSPRLLIYDTSNLASGVPVRFSGSGSGTSYSLTISRMEAEDAATYNCQQWSSYPLTFGAGTKLELK | ≥ 95 |
| antibody 44 (antibody, V domains shown, mouse IgG, kappa light chain; also called clone #44; purified antibody 44) VH: QVTLKESGPGILQPSQTLSLTCSFSGFSLSTFGMGVGWIRQPSEKGLEWLAHIWWDDDKYYNPALKSRLTISKDTSKNQIFLKITNVDTAETATYYCSRIGNYGSNYWYFDVWGTGTTVTVSS VL: QIVLTQSPAVMSASPGEKVTMTCTASSSVYYMYWYQQTPGSSPRLLIYDTSNLASGVPVRFSGSGSGTSYSLTISRMEAEDAATYYCQQWNTYPLTFGAGTKLELK | ≥ 95 |
| antibody 22 (antibody, V domains shown, mouse IgG, kappa light chain; also called clone #22; purified antibody 22) VH: QVTLKESGPGILQPSQTLSLTCSFSGFSLSTFGMGVGWIRQPSGKGLEWLAHIWWDDEKYYNSALKSRLTISKATSKNQVFLKIANVDTADTATYYCARISNYGSNYWYFNVWGTGTTVTVSS VL: QVVLTQSPALMSASPGEKVTMTCSAGSSVSYMYWYQQKPGSSPRVLIYDTSNLASGVPARFTGSGSGTSYSLTISRMEAEDAATYYCQQWNSYPLTFGAGTKLELK | ≥ 95 |
| antibody 16 (antibody, V domains shown, mouse IgG, kappa light chain; also called clone #16; purified antibody 16) VH: QVTLKESGPGILQPSQTLSLTCSFSGFSLSTFALGVGWIRQPSGRGLEWLAHIWWDDDKYYNPALKSRLTISKDTSKNHVFLKIANVDTADTATYYCARITTYYYGMDYWGQGTSVTVSS VL: DIVLSQSPATLSVTPGDSVSLFCRASQSIGNHLHWYQQESHASPRLLIKYASQSISGIPSRFSGSGSGTDFTLSINSVETEDFGMYFCQQSYNWPLTFGAGTKLELK | ≥ 95 |
| antibody 3 (antibody, V domains shown, mouse IgG, kappa light chain; also called clone #3; purified antibody 3) VH: QVTLKESGPGILQPSQTLSLTCSFSGFSLTTFAMGIGWVRQPSGKGLEWLAHIWWDGEKYNNPVLKSRLTISKDTSKNQVFLRIANVDTPDTATYYCARISSIYYIIDNWGQGTSVTVSS VL: DIVLTQSPATLSVTPGHSVSLSCRASQSISNNLHWYQKKSHESPRLLIKYVSQSISGIPSRFSGSGSGTDFTLSINSVETEDFGMYFCQQSYNWPLTFGAGTKLELK | ≥ 95 |
| antibody 34 (antibody, V domains shown, mouse IgG, kappa light chain; also called clone #34; purified antibody 34) VH: QVTLKESGPGILQPSQTLSLTCSFSGFSLSTFSLGVGWIRQSSGKGLEWLAHIWWDDEKYYNPALKSRLTISKDTSKNQVFLKIANVDAADTATYYCARAYYSKSYYALDYWGQGTSVTVSS VL: DIQMTQSPSSLSASLGERVSLTCRASQEISGYLSWLQQKPDGTIKRLIYAASTLDSGVPKRFSGSRSGSDYSLAISSLESEDFADYYCLQYANFPFTFGSGTKLEIK | ≥ 95 |
